Assay results from the supplement of paper PMC10126150.
± gives the standard deviation of the averaged measurements.

Tested on: ATP
Experiment: switch fluorescence ratio, 500 uM ATP over buffer (Cy3 cluster intensity, sum of 5 cycles each) (fold (ratio)); higher = stronger signal-on switching upon ATP binding; sequences stand for … in TCGTCGGCAGCGTCAGATGTGTATAAGAGACAGTTTTTTTTTTTTTTTTTTTTTTTTT…TC
Settings: aptamer strand: ATP DNA aptamer (quencher-CACCTGGGGGAGTATTGCGGAGGAAGG + anchor), 100 nM annealed; ATP concentration: 500 uM
Method in brief: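 The fluorescence ratio divides summed target-cycle Cy3 intensity by summed buffer-cycle Cy3 intensity for each cluster and is averaged per switch-domain sequence. Cy3-labelled switching-strand clusters on a modified Illumina MiSeq flow-cell were annealed to 100 nM quencher-labelled ATP aptamer, then imaged in selection buffer and again after 15 min with 500 uM ATP at 22 °C. Five such cycles were run, with NaOH stripping and re-annealing between them, and clusters outside 100-1000 RFU were excluded.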
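Further: ATP exposure 15 min at 22 °C before imaging.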

Sequence | switch fluorescence ratio
CTAGGTACTT | 1.03 ± 0.037
TGGGTTTGTC | 0.96 ± 0.049
TATGCTGGAT | 1.02 ± 0.059
CTTTTGAAGT | 0.983 ± 0.01
AATATATGGG | 0.973 ± 0.021
GAATTCAGGT | 0.994 ± 0.011
AGTTTTTAGG | 0.99 ± 0.024
TAATGGGTGG | 1.02 ± 0.083
GAAATTTGGT | 0.99 ± 0.042
AGAGGGGTAA | 0.998 ± 0.029
GGGTGTACCT | 1.039 ± 0.0043
TAGGGGCGGC | 1.01 ± 0.056
GGGAGCAAGG | 1.1 ± 0.018
TTTGCTGGTC | 1.05 ± 0.025
CAGGTCGCTT | 1.01 ± 0.0019
CGTTGCTGAT | 0.972 ± 0.035
TCTTTTGGAG | 0.996 ± 0.045
GCCGGGGGTA | 1.04 ± 0.079
TCAGGGGGAT | 1.02 ± 0.028
ATGATGGTGG | 1.02 ± 0.057
TTGGGCGTGT | 0.987 ± 0.021
ACGCGGAGAC | 1.24 ± 0.024
TTGCTTAAAC | 1.02 ± 0.025
GAATGGTATA | 0.9925 ± 0.0035
TGAGGACAGT | 1 ± 0.018

Sequence | switch fluorescence ratio
TAAAAAGGAT | 1.01 ± 0.02
GTGAGTAAGC | 1 ± 0.0035
GTCAATGGTG | 0.9901 ± 0.0074
AGATGTGCCT | 1.01 ± 0.045
TGTAGAGGGC | 1.04 ± 0.026
TAGTTAGTTT | 1.02 ± 0.029
TTGGGGGATA | 1.09 ± 0.24
TAAAGTTCTG | 1.01 ± 0.023
TTTTTTTAGG | 0.982 ± 0.03
ATAGCGCCGT | 1.01 ± 0.011
TTGGCATATG | 1.07 ± 0.085
CGTTGGCCGT | 1.03 ± 0.085
TGGCCGCTTT | 1.03 ± 0.03
TAGTAATATT | 1.11 ± 0.12
TCTGGGGGTG | 1.02 ± 0.059
GTCATAGCGT | 0.977 ± 0.016
ACAAATTGGG | 1.03 ± 0.092
AGTTAGGAGT | 0.9895 ± 0.0087
ATTGGTTGGT | 0.978 ± 0.048
AATTAACTCT | 1.05 ± 0.02
CGGGGAGGGC | 1.04 ± 0.071
AAAAAGGGCG | 0.989 ± 0.02
AGGGGCGTGA | 0.99 ± 0.011
AAGTTAAAAT | 1.012 ± 0.0074
TACTTATGTG | 1.01 ± 0.02

Sequence | switch fluorescence ratio
CGTGTAGTCC | 1.1 ± 0.086
TGGGGATAAC | 0.969 ± 0.034
CTTATCGGGG | 1 ± 0.013
AGGGCAGGGC | 0.917 ± 0.069
TCACGTTAAT | 1.2 ± 0.058
ATTGATTTTT | 1.01 ± 0.019
TGAGGAAAAG | 1.006 ± 0.0065
GGGTTTTAGT | 1.01 ± 0.029
TTAAATTAAT | 0.976 ± 0.047
AAAGTTGGTA | 0.967 ± 0.055
TGATTTCATT | 1.02 ± 0.048
CGTATGTGGT | 0.97 ± 0.019
AAAGGCCCGT | 1 ± 0.0077
AAGTTTGTGG | 0.973 ± 0.047
TAATTGGGTG | 1.09 ± 0.031
GGACAGTTGT | 1.01 ± 0.057
CAGGAGCTGT | 1.2 ± 0.034
GCGGGGGTAG | 1.17 ± 0.25
ATTAAGTGTT | 0.984 ± 0.042
GCATCCGTCG | 1.04 ± 0.031
TAGGGGGGAC | 1.19 ± 0.34
TTCTGAAGC | 3.69 ± 1
CGAGGGGGGC | 1.02 ± 0.092
CATAGGAGGC | 1 ± 0.031
GCGGCATGGT | 0.985 ± 0.0093

Sequence | switch fluorescence ratio
TAGGTTACCC | 1.04 ± 0.046
TACAATTTTA | 1.006 ± 0.0041
GCGAAAAAAG | 0.99907 ± 0.00052
TGAACGGTTC | 1.02 ± 0.021
TGCTAAAGGT | 0.9836 ± 0.0095
AGTCCTAGCC | 0.97 ± 0.012
GCAGTATTTT | 1.0075 ± 0.00081
AAGGGTATCC | 1.02 ± 0.013
AGACTCAATG | 0.988 ± 0.07
CTGGGGTGTA | 1.03 ± 0.059
ACTCTAGGTG | 3.47 ± 0.091
TCGGGGGTTC | 1.06 ± 0.027
CTTTATTCGT | 0.9896 ± 0.0096
CGTCTGCGCG | 0.972 ± 0.081
CTGTGGTTTA | 1.03 ± 0.021
TGAGTTATGG | 0.968 ± 0.03
TGGGTCGGCT | 1.06 ± 0.1
AGCCTAGTTC | 1.01 ± 0.026
GGTCATAATT | 0.986 ± 0.025
TTTGCCATTT | 1.02 ± 0.033
TTAAAGTCCC | 0.993 ± 0.033
GATCGCGTAT | 1.02 ± 0.0026
CCTGTATCTT | 1.03 ± 0.018
CACTCCCGGA | 1.15 ± 0.16
AAAAGGTGAA | 1.04 ± 0.089

Sequence | switch fluorescence ratio
GGTTTATGGA | 1.03 ± 0.024
ATAACATTAG | 0.9984 ± 0.0069
TAGCAAAAGG | 1.03 ± 0.015
GTTGCTAGAG | 1.006 ± 0.0035
AGTATGGTAG | 1.0145 ± 0.00092
CCGAGCTTGA | 1.61 ± 0.085
GAGGAGGGAC | 0.989 ± 0.05
AAATGGGGAA | 1.004 ± 0.0069
GGTGGCTGAA | 0.99 ± 0.022
ATATGATGTA | 0.966 ± 0.014
TAAGAGGAGT | 0.985 ± 0.013
GTATAAGGTT | 0.98006 ± 0.00074
TTTCAAATGT | 1.11 ± 0.17
GAAGATGGGG | 1.01 ± 0.024
CTAGCATGGG | 0.999 ± 0.029
AGGCGGCGG | 0.975 ± 0.022
TGAGTGCAAA | 0.9933 ± 0.0023
CGGGCTCAAC | 1.033 ± 0.0071
TTAAGAAATT | 1.01 ± 0.048
CACGAGAAGG | 1.03 ± 0.018
ACGGGTGGCT | 1 ± 0.014
GGGCTTGGAG | 1.012 ± 0.00086
CAGACTCGGT | 1.02 ± 0.024
CGATGTTTGG | 0.988 ± 0.025
CACTAGTGGG | 1 ± 0.0024

Sequence | switch fluorescence ratio
AAGGGATTGT | 1.18 ± 0.26
AAATCGGATA | 1.03 ± 0.003
TTGAAGTTTT | 0.991 ± 0.039
CTGTATAGGT | 0.965 ± 0.025
TTTAGTTGCC | 0.984 ± 0.058
AGAAGGCGGG | 0.985 ± 0.029
CGGTATTCTG | 1.01 ± 0.052
TGGGCTAAAT | 0.987 ± 0.027
ATTTTTGTCA | 0.985 ± 0.015
GCGGGCCCTT | 1.01 ± 0.012
ACGAGTGGGC | 1 ± 0.063
GGGGATTGAA | 0.994 ± 0.018
GCAAGGTTAT | 1.01 ± 0.018
CAAAGGTACA | 1.008 ± 0.0063
ACAAGGAGGC | 0.983 ± 0.014
CGGATTTTAT | 1.02 ± 0.035
GGGGGGAGCA | 0.992 ± 0.018
AGGTTAGAGG | 0.993 ± 0.016
TATCTTTCGG | 0.997 ± 0.021
ACATAAGAGG | 1.05 ± 0.013
AGGGGGTGCG | 0.988 ± 0.029
CGAGTAGCGG | 1.01 ± 0.036
GGGGTTGGTT | 0.995 ± 0.044
AGTTTTTAGA | 1.03 ± 0.033
ACGATGAAGA | 1.009 ± 0.0026

Sequence | switch fluorescence ratio
CGGGAGACAT | 1.01 ± 0.014
GTAGTGGCAG | 0.992 ± 0.049
AAGAAGCTGA | 0.972 ± 0.019
GTGAATTGGG | 1.03 ± 0.03
TTGAGCATTT | 0.982 ± 0.03
TTTTTTGGCT | 0.995 ± 0.025
GGAGAGGTTG | 0.971 ± 0.021
GTTTGTTATC | 0.98 ± 0.0057
GTTCTGATGT | 1.01 ± 0.029
ATGCGAGTAT | 1.023 ± 0.0018
TACGATAGTC | 1.06 ± 0.069
AAATTTACAG | 1.03 ± 0.04
CAACGAAGTG | 1 ± 0.069
GGTTACTTGG | 0.9885 ± 0.0097
TAAGGAAAGG | 0.982 ± 0.027
CCCATTGTCG | 1.01 ± 0.064
CACAGGTGCG | 2.23 ± 0.08
AAGGGGATAT | 1.03 ± 0.044
AATTTTAGAA | 1 ± 0.053
TGGGGGCAAG | 0.987 ± 0.018
AACGTGTGTG | 0.95018 ± 1.6e-05
GGTCCTGGGG | 1.01 ± 0.039
TATTTCTGTG | 1.02 ± 0.034
TGAGAGCTGA | 0.9825 ± 0.0063
TATTTTCGGA | 0.97 ± 0.039

Sequence | switch fluorescence ratio
TAGGCTTTTT | 0.9925 ± 0.0075
TGGGACTGGG | 1.01 ± 0.06
TTTGCTGAAA | 0.964 ± 0.026
TGTAGGAAGT | 0.992 ± 0.017
TAGTTGTTGC | 0.977 ± 0.021
AACGGATTCT | 1.04 ± 0.016
CGTTTGTACT | 1.022 ± 0.0013
GTAATTGTTA | 1 ± 0.015
TAGATTTCGT | 0.9797 ± 0.0052
CTCCTAAATG | 1.19 ± 0.015
GGCGGCGGGG | 1.03 ± 0.049
ATGTAATTCG | 1.002 ± 0.0086
TTAAGGGTCC | 0.984 ± 0.061
CTCGGGGATG | 0.976 ± 0.013
TATTTAGTAT | 0.99 ± 0.045
TGAAAGCCAC | 1.1 ± 0.024
TCTGGCGTTG | 0.983 ± 0.01
TTATTTCGAA | 1.01 ± 0.012
CGTCCTGGGC | 1.0441 ± 0.00044
CATGCATGTT | 1.01 ± 0.029
TGCGTCCCAA | 1.34 ± 0.021
TGGTGATAGT | 0.965 ± 0.035
AAAAGGCATA | 1.03 ± 0.046
ATAATAGGGC | 1 ± 0.015
TTTCACAAAG | 1 ± 0.018
